# Tests used:
# BSA-E-416-433 = BSA-E-416-433 (Human immunodeficiency virus type 1 group M subtype B, UniProt P04578, C418S/K429E); settings: inhibited by gp120, Bt-E-416-433 and sCD4, not by Sh416-433 or ovalbumin
# Description: FIG. 21. […] IgM 2G9 binding to BSA-E-416-433 (70 ng/well) was tested in the absence or presence of increasing concentrations of Bt-E-416-433, sCD4, gp120, control Sh416-433 and control ovalbumin (OVA). Y-axis values are computed as follows 100x[A490 with competitor/A490 without competitor]. Methods as in ref 2.
# [1] = tested on: subtype C clinical HIV isolate ZA009 (97ZA009); assay: HIV neutralization, PBMC/clinical isolate assay, strain ZA009; type: cell-based; settings: MAb clones from KLH-E-416-433 immunized mice
# Excerpt: FIG. 12. […] A, 416-433 and 301-324 epitope sequences from the autologous subtype B strain of IgA donor 2866 and heterologous subtype C strain ZA009 used for neutralization assays. […] Host cells, PBMCs; virus isolate, R5-dependent subtype C strain ZA009. IC50, 50% neutralization concentration. Dashed lines, 95% confidence limits. […] Pooled IgA (I19-21 donors 2857, 2866 and 2886) was fractionated on agarose-conjugated as in FIG. 8. […] Host cells, PBMCs; virus, strain ZA009.
# FIG. 19. […] Abs were fractionated by affinity chromatography on agarose-conjugated E-416-433. Plotted are the neutralization potencies (IC50) expressed per unit mass Ab content (sum of IgM, IgG and IgA measured by ELISA using class-specific Abs as in FIG. 8). IC50 computed from dose-response curves using the CCR5-dependent subtype C strain 97ZA009. […] Noncovalently and covalently bound fractions were recovered, respectively, by pH 2.7 elution and 2-PAM elution.
# Neutralization of clinical HIV isolates obtained from the NIH AIDS Reagent Repository is tested using phytohemagglutinin-activated human PBMCs pooled from 4-12 donors.^44 The virus is incubated with the test Ab sample in quadruplicate to ensure reliability. The reaction mixtures are added to PBMCs in 96-well plates. Infection is monitored using p24 enzyme-immunoassay kits. […] The stock HIV strain ZA009 is used to infect PBMC in the presence of the Ab. Infection proceeds overnight and cells are washed and resuspended in RPMI media containing the Ab. After 7 days the cell-free supernatant is harvested and used to infect a new aliquot of stimulated PBMCs (second passage). The virus is passaged 10 times with a gradual (2-fold) increase in Ab concentration with each passage. A virus aliquot is saved at each passage for sequencing.^112 Viral supernatants are titered at each passage using a fresh batch of PBMCs. The gp120 gene will sequenced following RT-PCR as described.^113
Molecule,specificity of binding shown by competitive inhibition (BSA-E-416-433),HIV neutralizing activity [1]
"2G9: murine IgM MAb from KLH-E-416-433 immunization (antibody, V domains shown) VH: QVQLKQSGPGLVQPSQSLSITCTVSGFSLTSYGVHWVRQSPGKGLEWLGVIWSGGSTDYNAAFISRLSISKDNSKSQVFFKMNSLQANDTAIYYCARNKDYGSSYDYYAMDYWGQGTSVTVSS VL: DIQMTQTTSSLSASLGDRVTISCRASQDISNYLNWYQQKPDGTVKLLIYYTSRLHSGVPSRFSGSGSGTDYSLTISNLEQEDIATYFCQQGNTLPTFGGGTKLEIKRA",Specificity for 421-433 CD4BS sequence,neutralizing activity
"4B2-F8: murine IgG MAb from KLH-E-416-433 immunization (antibody, V domains shown) VH: QVQLQQSGAELVRPGASVKLSCMALGYTFTDYEIHWVKQTPVHGLEWIGGFHPGSGGGAYSQKFKGKATLIADKSSSIAYMEVISLTSEDSAVYYCTRFRYSSFAMVYWGQGTSVTVSS VL: DIVMSQSPSSLAVSAGEKVTMSCKSSQSLLNSRTRKNYLAWYQQKPGQSPKLLIYWASTRESGVPDRFTGSGSGTDFTLTINSVQAEDLAVYYCKQSYNLWTFGGGTKLEIK",,neutralizing activity
"9F3-A7: murine IgG MAb from KLH-E-416-433 immunization (antibody, V domains shown) VH: QVQLQQSGAELVRPGASVKLSCKALGYTFTDYEMHWVKQTPVHGLEWIGGIYPGSGGTAYNQKFKGKATLTADKSSSTAYMELSSLTSEDSAVYYCTKFRFSSFAMDYWGQGTSVTVSS VL: DIVMSQSPSSLAVSAGEKVTMRCKSSQSLLNSRTRKNYLAWYQQKPGQSPKLLIYWASTRESGVPDRFTGSGSGTDFTLTISSVQAEDLAVYYCKQFYNLWTFGGGTKLEIK",,neutralizing activity

# — US20120121633A1, “HIV CD4 BINDING SITE BASED COVALENT IMMUNOGEN COMPOSITIONS” (priority 2010, published 2012)
